According to PMC7822592, “The half-life of the bone-derived hormone osteocalcin is regulated through O-glycosylation in mice, but not in humans” (eLife, 2020):
No end group written: not given here. O‑glycan = not defined here

Test: In vivo half-life assay, serum OCN after intraperitoneal injection in Bglap-/- mice
Set-up: species or system mouse
Details: 40 ng/g i.p.; for serum OCN: ELISA; for in vivo half-life: estimated from declining phase after maximum at 30 min, serum ELISA
Description: For in vivo half-life assay, Bglap-/- male mice were injected intraperitoneally with 40 or 80 ng/g of body weight of mouse O-glycosylated ucOCN or non-glycosylated ucOCN, serum OCN level was analyzed at indicated time points using total mouse OCN ELISA. In all ex vivo and in vivo studies, mouse or human proteins were prepared in saline solution (0.9% NaCl) containing BSA (35 mg/ml) as a carrier.

O-gly ucOCN: O-glycosylated uncarboxylated mouse osteocalcin produced and purified from HEK293 as Fc fusion, released by thrombin (YLGASVPS(O‑glycan)PDPLEPTREQCELNPACDELSDQYGLKTAYKRIYGITI; ends and bridges not checked; also: O-glycosylated (HexNAc, Hex, NANA); UniProt P86546 50-95, looked up)
serum OCN (Bglap-/- male mice fasted 16 hr, 15 min, mouse 1): 24.4 ng/mL | serum OCN (Bglap-/- male mice fasted 16 hr, 15 min, mouse 2): 19.4 ng/mL | serum OCN (Bglap-/- male mice fasted 16 hr, 15 min, mouse 3): 16.3 ng/mL | serum OCN (Bglap-/- male mice fasted 16 hr, 15 min, mouse 4): 21.1 ng/mL | serum OCN (Bglap-/- male mice fasted 16 hr, 15 min, mouse 5): 17.9 ng/mL | serum OCN (Bglap-/- male mice fasted 16 hr, 30 min, mouse 1): 30.7 ng/mL | serum OCN (Bglap-/- male mice fasted 16 hr, 30 min, mouse 2): 26.9 ng/mL | serum OCN (Bglap-/- male mice fasted 16 hr, 30 min, mouse 3): 24.6 ng/mL | serum OCN (Bglap-/- male mice fasted 16 hr, 30 min, mouse 4): 23.6 ng/mL | serum OCN (Bglap-/- male mice fasted 16 hr, 30 min, mouse 5): 20.9 ng/mL | serum OCN (Bglap-/- male mice fasted 16 hr, 60 min, mouse 1): 27.5 ng/mL | serum OCN (Bglap-/- male mice fasted 16 hr, 60 min, mouse 2): 23.9 ng/mL | serum OCN (Bglap-/- male mice fasted 16 hr, 60 min, mouse 3): 23.9 ng/mL | serum OCN (Bglap-/- male mice fasted 16 hr, 60 min, mouse 4): 20.4 ng/mL | serum OCN (Bglap-/- male mice fasted 16 hr, 60 min, mouse 5): 19.0 ng/mL | serum OCN (Bglap-/- male mice fasted 16 hr, 90 min, mouse 1): 26.3 ng/mL | serum OCN (Bglap-/- male mice fasted 16 hr, 90 min, mouse 2): 20.0 ng/mL | serum OCN (Bglap-/- male mice fasted 16 hr, 90 min, mouse 3): 21.1 ng/mL | serum OCN (Bglap-/- male mice fasted 16 hr, 90 min, mouse 4): 17.6 ng/mL | serum OCN (Bglap-/- male mice fasted 16 hr, 90 min, mouse 5): 15.7 ng/mL | serum OCN (Bglap-/- male mice fasted 16 hr, 120 min, mouse 1): 21.6 ng/mL | serum OCN (Bglap-/- male mice fasted 16 hr, 120 min, mouse 2): 17.9 ng/mL | serum OCN (Bglap-/- male mice fasted 16 hr, 120 min, mouse 3): 18.4 ng/mL | serum OCN (Bglap-/- male mice fasted 16 hr, 120 min, mouse 4): 17.6 ng/mL | serum OCN (Bglap-/- male mice fasted 16 hr, 120 min, mouse 5): 15.6 ng/mL | in vivo half-life (Bglap-/- male mice fasted 16 hr): 182 min | in vivo half-life (Bglap-/- male mice fasted 16 hr, listed as O-glycosylated ucOCN): ~ 182 min | serum OCN (fed Bglap-/- male mice, 15 min, mouse 1): 46.2 ng/mL | serum OCN (fed Bglap-/- male mice, 15 min, mouse 2): 44.9 ng/mL | serum OCN (fed Bglap-/- male mice, 15 min, mouse 3): 53.1 ng/mL | serum OCN (fed Bglap-/- male mice, 15 min, mouse 4): 55.0 ng/mL | serum OCN (fed Bglap-/- male mice, 15 min, mouse 5): 58.1 ng/mL | serum OCN (fed Bglap-/- male mice, 15 min, mouse 6): 56.8 ng/mL | serum OCN (fed Bglap-/- male mice, 15 min, mouse 7): 44.9 ng/mL | serum OCN (fed Bglap-/- male mice, 15 min, mouse 8): 33.3 ng/mL | serum OCN (fed Bglap-/- male mice, 15 min, mouse 9): 33.3 ng/mL | serum OCN (fed Bglap-/- male mice, 15 min, mouse 10): 59.4 ng/mL | serum OCN (fed Bglap-/- male mice, 30 min, mouse 1): 51.1 ng/mL | serum OCN (fed Bglap-/- male mice, 30 min, mouse 2): 72.5 ng/mL | serum OCN (fed Bglap-/- male mice, 30 min, mouse 3): 64.1 ng/mL | serum OCN (fed Bglap-/- male mice, 30 min, mouse 4): 65.1 ng/mL | serum OCN (fed Bglap-/- male mice, 30 min, mouse 5): 69.7 ng/mL | serum OCN (fed Bglap-/- male mice, 30 min, mouse 6): 73.2 ng/mL | serum OCN (fed Bglap-/- male mice, 30 min, mouse 7): 40.4 ng/mL | serum OCN (fed Bglap-/- male mice, 30 min, mouse 8): 59.8 ng/mL | serum OCN (fed Bglap-/- male mice, 30 min, mouse 9): 47.5 ng/mL | serum OCN (fed Bglap-/- male mice, 30 min, mouse 10): 72.5 ng/mL | serum OCN (fed Bglap-/- male mice, 60 min, mouse 1): 25.1 ng/mL | serum OCN (fed Bglap-/- male mice, 60 min, mouse 2): 44.3 ng/mL | serum OCN (fed Bglap-/- male mice, 60 min, mouse 3): 31.5 ng/mL | serum OCN (fed Bglap-/- male mice, 60 min, mouse 4): 48.0 ng/mL | serum OCN (fed Bglap-/- male mice, 60 min, mouse 5): 45.3 ng/mL | serum OCN (fed Bglap-/- male mice, 60 min, mouse 6): 33.8 ng/mL | serum OCN (fed Bglap-/- male mice, 60 min, mouse 7): 15.4 ng/mL | serum OCN (fed Bglap-/- male mice, 60 min, mouse 8): 40.4 ng/mL | serum OCN (fed Bglap-/- male mice, 60 min, mouse 9): 23.7 ng/mL | serum OCN (fed Bglap-/- male mice, 60 min, mouse 10): 29.5 ng/mL | serum OCN (fed Bglap-/- male mice, 90 min, mouse 1): 11.0 ng/mL | serum OCN (fed Bglap-/- male mice, 90 min, mouse 2): 19.1 ng/mL | serum OCN (fed Bglap-/- male mice, 90 min, mouse 3): 10.0 ng/mL | serum OCN (fed Bglap-/- male mice, 90 min, mouse 4): 23.7 ng/mL | serum OCN (fed Bglap-/- male mice, 90 min, mouse 5): 20.1 ng/mL | serum OCN (fed Bglap-/- male mice, 90 min, mouse 6): 15.5 ng/mL | serum OCN (fed Bglap-/- male mice, 90 min, mouse 7): 7.2 ng/mL | serum OCN (fed Bglap-/- male mice, 90 min, mouse 8): 19.6 ng/mL | serum OCN (fed Bglap-/- male mice, 90 min, mouse 9): 11.8 ng/mL | serum OCN (fed Bglap-/- male mice, 90 min, mouse 10): 11.4 ng/mL | serum OCN (fed Bglap-/- male mice, 120 min, mouse 1): 5.5 ng/mL | serum OCN (fed Bglap-/- male mice, 120 min, mouse 2): 9.5 ng/mL | serum OCN (fed Bglap-/- male mice, 120 min, mouse 3): 4.6 ng/mL
